These results are taken from article PMC4256255 (PLoS Pathogens, 2014).

This series concerns the molecule itself. The series is described as follows: SEC-MALS. A general note: In gel filtration, larger molecules generally elute earlier.

B1: D8 Δ262 construct (amino acids 1–261, lacking Cys 262) (domain or fragment)
chain: MPQQLSPINIETKKAISNARLKPLDIHYNESKPTTIQNTGKLVRINFKGGYISGGFLPNEYVLSSLHIYWGKEDDYGSNHLIDVYKYSGEINLVHWNKKKYSSYEEAKKHDDGLIIISIFLQVLDHKNVYFQKIVNQLDSIRSANTSAPFDSVFYLDNLLPSKLDYFTYLGTTINHSADAVWIIFPTPINIHSDQLSKFRTLLSSSNHDGKPHYITENYRNPYKLNDDTQVYYSGEIIRAATTSPARENYFMRWLSDLRET
As usually defined, the stoichiometry N is a count of units in the complex or per binding partner. Consider B1, for which the “stoichiometry N” value worked out at 6.
